Measured values as given in patent US9395368B2, “Methods, agents and peptides for inducing an immune response to matrix metalloproteinase-2 expressing tumors” (New York University, priority 2010, dated 2016).

B1: heat-inactivated MMP-2: MMP-2 enzyme inactivated by heating to 56° C. for 45 min (protein, UniProt P08253 110-660, looked up)
72 kDa type IV collagenase: YNFFPRKPKWDKNQITYRIIGYTPDLDPETVDDAFARAFQVWSDVTPLRFSRIHDGEADIMINFGRWEHGDGYPFDGKDGLLAHAFAPGTGVGGDSHFDDDELWTLGEGQVVRVKYGNADGEYCKFPFLFNGKEYNSCTDTGRSDGFLWCSTTYNFEKDGKYGFCPHEALFTMGGNAEGQPCKFPFRFQGTSYDSCTTEGRTDGYRWCGTTEDYDRDKKYGFCPETAMSTVGGNSEGAPCVFPFTFLGNKYESCTSAGRSDGKMWCATTANYDDDRKWGFCPDQGYSLFLVAAHEFGHAMGLEHSQDPGALMAPIYTYTKNFRLSQDDIKGIQELYGASPDIDLGTGPTPTLGPVTPEICKQDIVFDGIAQIRGEIFFFKDRFIWRTVTPRDKPMGPLLVATFWPELPEKIDAVYEAPQEEKAVFFAGNEYWIYSASTLERGYPKPLTSLGLPPDVQRVDAAFNWSKNKKTYIFAGDKFWRYNEVKKKMDPGFPKLIADAWNAIPDNLDAVVDLQGGGHSYFFKGAYYLKLENQSLKSVKFGSIKSDWLGC
modifications: heat-inactivated
B2: MMP-2+I: MMP-2 enzyme inactivated by addition of the MMP-2 inhibitor III at 100 nM for 20 min (protein, UniProt P08253 110-660, looked up)
72 kDa type IV collagenase: YNFFPRKPKWDKNQITYRIIGYTPDLDPETVDDAFARAFQVWSDVTPLRFSRIHDGEADIMINFGRWEHGDGYPFDGKDGLLAHAFAPGTGVGGDSHFDDDELWTLGEGQVVRVKYGNADGEYCKFPFLFNGKEYNSCTDTGRSDGFLWCSTTYNFEKDGKYGFCPHEALFTMGGNAEGQPCKFPFRFQGTSYDSCTTEGRTDGYRWCGTTEDYDRDKKYGFCPETAMSTVGGNSEGAPCVFPFTFLGNKYESCTSAGRSDGKMWCATTANYDDDRKWGFCPDQGYSLFLVAAHEFGHAMGLEHSQDPGALMAPIYTYTKNFRLSQDDIKGIQELYGASPDIDLGTGPTPTLGPVTPEICKQDIVFDGIAQIRGEIFFFKDRFIWRTVTPRDKPMGPLLVATFWPELPEKIDAVYEAPQEEKAVFFAGNEYWIYSASTLERGYPKPLTSLGLPPDVQRVDAAFNWSKNKKTYIFAGDKFWRYNEVKKKMDPGFPKLIADAWNAIPDNLDAVVDLQGGGHSYFFKGAYYLKLENQSLKSVKFGSIKSDWLGC
modifications: with MMP-2 inhibitor III
B3: rhIL-12: recombinant human IL-12 from R&D Systems (protein)
chain 1: RNLPVATPDPGMFPCLHHSQNLLRAVSNMLQKARQTLEFYPCTSEEIDHEDITKDKTSTVEACLPLELTKNESCLNSRETSFITNGSCLASRKTSFMMALCLSSIYEDLKMYQVEFKTMNAKLLMDPKRQIFLDQNMLAVIDELMQALNFNSETVPQKSSLEEPDFYKTKIKLCILLHAFRIRAVTIDRVMSYLNAS
chain 2: IWELKKDVYVVELDWYPDAPGEMVVLTCDTPEEDGITWTLDQSSEVLGSGKTLTIQVKEFGDAGQYTCHKGGEVLSHSLLLLHKKEDGIWSTDILKDQKEPKNKTFLRCEAKNYSGRFTCWWLTTISTDLTFSVKSSRGSSDPQGVTCGAATLSAERVRGDNKEYEYSVECQEDSACPAAEESLPIEVMVDAVHKLKYENYTSSFFIRDIIKPDPPKNLQLKPLKNSRQVEVSWEYPDTWSTPHSYFSLTFCVQVQGKSKREKKDRVFTDKTSATVICRKNASISVRAQDRYYSSSWSEWASVPCS

Experiments:
Format in all cases: cell-based, human
[1] = tested on: Cord blood-derived CD4+/CD25- cells; test: Priming of naive cord blood CD4+ T cells with autologous CD4- cells loaded with different sources of MMP-2; conditions: for percentage of MMP-2-specific CD4+ T cells secreting IL-4, mean: 11 cord blood donors, 15 days after priming, after background subtraction; for mean of the individual differences in IL-4 secreting cells versus priming with active MMP-2: paired within donors
Description: Cord blood-derived CD4^+/CD25^− cells from 11 donors were stimulated with irradiated autologous CD4^− cells loaded either with active MMP-2, heat-inactivated (HI) MMP-2 or with MMP-2 pre-incubated with a specific inhibitor (+I). After 15 days, CD4^+ T cells were stimulated with the MMP-2 peptide pool (2 μM) for 6 h before intracellular staining of cytokines. (A) Density plots representing cytokine production by CD4^+ T cells are shown for the representative donor CB35 primed to MMP-2 either in its active form or after heat-inactivation. Numbers indicate percentages of cytokine-producing cells upon MMP-2 peptide stimulation. […] MMP-2 enzymatic activity was controlled (FIG. 13C-D). For each cytokine, 3 paired t-tests were used to compare active MMP-2 to heat inactivated MMP-2, to MMP-2+I, and to MMP-2 peptides. P values≦0.0167 (*) were considered statistically significant using a Bonferroni correction for 3 comparisons.
(§1) T Cell culture, stimulation and priming. Peripheral blood mononuclear cells (PBMCs) were purified from healthy donor-(HD) or cord blood donor-(CB) derived buffy coats (New York Blood Center) by Ficoll-Paque Plus (GE Healthcare) centrifugation. CD4^+/CD25^− cells were enriched (>90%) by magnetic cell sorting (Miltenyi Biotec) and primed/stimulated for 12-15 days either with irradiated (35Gy) autologous CD4^− cells or with autologous mature DCs in IMDM (GIBCO) supplemented with 1 mM HEPES (Life Technologies), 2 mM L-glutamine (Sigma), streptomycin (100 UI/mL)/penicillin (100 μg/mL) (Sigma) and 5% heat inactivated pooled human serum (PHS; Valley Biomedical) in the presence of rhIL-2 (10 UI/mL) and IL7 (5 ng/mL) (R&D Systems). Antigen presenting cells (CD4^− cells or DCs) were loaded either with peptides (2 μM) or with the MMP-2 protein (10 μg/mL) for 2 and 5 h, respectively. DCs were matured using the TLR3 agonist poly(I:C) at 5 μg/mL/10^6 DCs (Amersham). To generate T cell clones, we originally relied on our published methodology (Godefroy et al., 2006; Godefroy et al., 2007; the entire contents of each of which is incorporated herein by reference), involving enrichment of IFNγ-secreting cells upon short-term culture and peptide stimulation to generate MMP-2 responsive clones. Briefly, CD4^+ T cells were stimulated by CD4^− cells irradiated and pulsed with peptides for 12 days in the presence of rhIL-2 and rhIL-7. CD4^+ T cells were then restimulated with peptides for 3 hours before capturing IFNγ-secreting specific cells using a bispecific antibody coating T cells and capturing produced IFNγ. Positive cells were purified magnetically before being cloned. Although MMP-2-specific cells could be isolated, it was realized that IFNγ secretion was marginal compared to their secretion of IL-4 and TNFα. IFNγ-secreting cells in response to MMP-2 peptide pool were enriched by cytokine-guided magnetic cell sorting (Miltenyi Biotec) as described above and cloned the following day by limiting dilution in the presence of irradiated allogeneic PBMCs, 1 μg/mL phytohemagglutinin-L (Sigma) and 150 UI/mL rhIL-2. Tumor infiltrating lymphocytes (TILs) were provided by Pr. F. Jotereau and B. Dréno. They were obtained from tumor-invaded lymph nodes of melanoma patients (stage Mb) and expanded ex vivo. These patients received autologous TILs and IL-2 infusions in a clinical trial (Labarriere et al., 2002). This protocol was approved by the Institutional Ethics Committee and registered with regulatory state authority in France (Nantes).
Intracellular staining T-bet and GATA-3 expression was measured on resting T cells. Cells were fixed (4% paraformaldehyde for 10 min at RT), permeabilized with 0.1% saponin, and stained for intracellular transcription factors. Cytokine production by T cells was also assessed by intracellular staining T cells were stimulated with 2 μM overlapping peptides. After 1 h, 10 μg/mL brefeldin A was added to the cells. […]

[2] = tested on: Cord blood-derived CD4+/CD25- cells; test: Priming of naive CD4+ T cells to Melan-A/MART-1 or NY-ESO-1 with DCs pre-incubated with MMP-2
Description: (A) Cord blood-derived CD4^+/CD25^− cells were stimulated with autologous poly(I:C)-matured DCs pulsed with overlapping peptides spanning either Melan-A/MART-1 or NY-ESO-1. Prior to poly(I:C) addition, DCs were incubated with or without MMP-2 (active or heat-inactivated) for 1 h. MMP-2 enzymatic activity was controlled (FIG. 13C-D). After 15 days, CD4^+ T cells were stimulated with the Melan-A/MART-1 or NY-ESO-1 peptide pools (2 μM) for 6 h before intracellular staining of cytokines. Percentages of antigen-specific CD4^+ T cells, secreting indicated cytokines, are represented for all donors. (B) Contour plots showing percentages of cytokine-producing CD4^+ T cells are shown for representative donor CB45 primed to Melan-A/MART-1. Percentage of secreting cells upon peptide stimulation was considered specific/positive when it exceeded by more than twofold the background (cytokine-secreting cells in the absence of stimulation) and had more than 0.5% of responding cells (after background subtraction) for at least one cytokine. For each cytokine, 2 paired t-tests were used to compare priming in the presence of active MMP-2 to either priming in the absence of active MMP-2 or with HI MMP-2. The Bonferroni adjustment was used for multiple comparisons. P values≦0.025 (*) were considered statistically significant using a Bonferroni correction for 2 comparisons.
as §1, with “(Nantes). […]” for “(Nantes).”

[3] = tested on: Cord blood-derived CD4+/CD25- cells; test: Priming of naive CD4+ T cells with active MMP-2-loaded DCs with rhIL-12 or blocking mAb for OX40L or IL-4
Description: […] CD4^+ T cells were then stimulated with the MMP-2 peptide pool (2 μM) for 6 h before intracellular staining of cytokines. Contour plots representing cytokine production by CD4^+ T cells are shown for donor CB31 CD4^+ T cells primed to MMP-2 alone, or together with rhIL-12, anti-OX40L mAb or anti-IL-4 mAb. (B) Percentages of MMP-2-specific CD4^+ T cells, secreting indicated cytokines, are represented for all donors. For each cytokine, 5 paired t-tests were used to compare “no conditioning” versus various conditions. P values≦0.01 (*) were considered statistically significant using a Bonferroni correction for 5 comparisons.
as §1, with “IFNγ-secreting cells in response to MMP-2 peptide pool were enriched by cytokine-guided magnetic cell sorting (Miltenyi Biotec) as described above and cloned the following day by limiting dilution in the presence of irradiated allogeneic PBMCs, 1 μg/mL phytohemagglutinin-L (Sigma) and 150 UI/mL rhIL-2. Tumor infiltrating lymphocytes (TILs) were provided by Pr. F. Jotereau and B. Dréno. They were obtained from tumor-invaded lymph nodes of melanoma patients (stage Mb) and expanded ex vivo. These patients received autologous TILs and IL-2 infusions in a clinical trial (Labarriere et al., 2002). This protocol was approved by the Institutional Ethics Committee and registered with regulatory state authority in France (Nantes).” left out
Intracellular staining T-bet and GATA-3 expression was measured on resting T cells. […] Cytokine production by T cells was also assessed by intracellular staining T cells were stimulated with 2 μM overlapping peptides. […]

[4] = rhIL-12 10 ng/mL or mAb 10 μg/mL throughout priming

Row | Molecule | percentage of MMP-2-specific CD4+ T cells secreting IL-4, mean [1] | mean of the individual differences in IL-4 secreting cells versus priming with active MMP-2 [1] | IFNγ, mean of differences relative to priming in the presence of active MMP-2 [2] | IL-2, mean of differences relative to priming in the presence of active MMP-2 [2] | IL-4, mean of differences relative to priming in the presence of active MMP-2 [2] | IFNγ-secreting cells ([3]; doses as low as 1 ng/mL) | percentages of IL4-secreting T cells ([3]; doses as low as 1 ng/mL) | IFNγ secretion by primed MMP-2-specific CD4+ T cells versus no conditioning [3, 4] | IL-4 secretion by primed MMP-2-specific CD4+ T cells versus no conditioning [3, 4]
1 | B1 | 0.45% | 1.80 | 0.21 | 0.11 | 1.92 | – | – | – | –
2 | B2 | 0.12% | 1.47 | – | – | – | – | – | – | –
3 | B3 | – | – | – | – | – | more | lower percentages | more | less
